Molecular target: the molecule itself
Test: deoxycholate-induced oligomerization, PAGE and western blot

B1: Staphylococcus aureus alpha-hemolysin (Hla) (natural protein)
chain: ADSDINIKTGTTDIGSNTTVKTGDLVTYDKENGMHKKVFYSFIDDKNHNKKLLVIRTKGTIAGQYRVYSEEGANKSGLAWPSAFKVQLQLPDNEVAQISDYYPRNSIDTKEYMSTLTYGFNGNVTGDDTGKIGGLIGANVSIGHTLKYVQPDFKTILESPTDKKVGWKVIFNNMVNQNWGPYDRDSWNPVYGNQLFMKTRNGSMKAADNFLDPNKASSLLSSGFSPDFATVITMDRKASKQQTNIDVIYERVRDDYQLHWTSTNWKGTNTKDKWTDRSSERYKIDWEKEEMTN
stoichiometry N: 7

Source: PMC10470925 (PLOS ONE, 2023)
